This assay has as its target T1, human PD-L1 expressed on the surface of SC-islet cells (human, UniProt Q9NZQ7 19-290).
T1 construct: whole, on cells; also called PD-L1 on B2P SC-islet cells
As to the kind of experiment: flow cytometry, labelled PD-1-Fc on dissociated SC-islet cells.

T1 sequence (Q9NZQ7 19-290): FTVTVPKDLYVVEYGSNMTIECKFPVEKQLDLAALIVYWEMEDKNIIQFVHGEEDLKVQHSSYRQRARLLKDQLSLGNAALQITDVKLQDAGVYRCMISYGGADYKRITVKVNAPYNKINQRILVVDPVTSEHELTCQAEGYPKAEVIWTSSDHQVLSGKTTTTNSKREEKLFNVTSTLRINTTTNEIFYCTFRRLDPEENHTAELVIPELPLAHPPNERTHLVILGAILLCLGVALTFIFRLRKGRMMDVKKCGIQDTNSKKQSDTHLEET

B1: PE-conjugated mouse PD1-Fc (Fc fusion, UniProt Q02242 25-167, looked up)
chain: LEVPNGPWRSLTFYPAWLTVSEGANATFTCSLSNWSEDLMLNWNRLSPSNQTEKQAAFCNGLSQPVQDARFQIIQLPNRHDFHMNILDTRRNDSGIYLCGAISLHPKAKIEESPGAELVVTERILETSTRYPSPSPKPEGRFQ
modifications: PE-conjugated (fluorescently labelled)
notes: It says only 'fluorescently labelled, soluble' PD-1-Fc; also called soluble mouse PD-1-Fc; soluble mouse PD-1; not shown: Fc part
Take B1: the binding result is on record as “binds”.

The values are drawn from patent publication US20250177453A1 (Harvard, published 2025).
